One data set deals with T1, NTT1ΔC (Arabidopsis thaliana, UniProt Q39002).
T1 construct: gene AATP1; mature form (first 79 residues removed) with last 41 residues deleted (deletion borders computed from a recalled length of 624); tagged; E. coli; purified in LAPAO; partly aggregated
T1 sequence (Q39002 80-583): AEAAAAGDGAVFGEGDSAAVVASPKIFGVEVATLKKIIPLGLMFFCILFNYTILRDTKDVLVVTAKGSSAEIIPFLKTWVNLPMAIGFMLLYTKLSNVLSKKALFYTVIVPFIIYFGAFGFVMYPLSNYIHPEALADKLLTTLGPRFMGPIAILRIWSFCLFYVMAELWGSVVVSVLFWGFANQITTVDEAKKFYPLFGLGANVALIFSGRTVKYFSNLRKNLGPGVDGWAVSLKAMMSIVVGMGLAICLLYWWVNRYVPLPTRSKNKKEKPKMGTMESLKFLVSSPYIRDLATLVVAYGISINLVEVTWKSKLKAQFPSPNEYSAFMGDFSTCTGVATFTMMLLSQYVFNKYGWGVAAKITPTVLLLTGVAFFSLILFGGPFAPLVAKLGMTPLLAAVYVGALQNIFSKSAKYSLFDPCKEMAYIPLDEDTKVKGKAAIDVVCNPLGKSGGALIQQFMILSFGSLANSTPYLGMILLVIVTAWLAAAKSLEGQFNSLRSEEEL
Briefly: tryptophan fluorescence variation, two-site fit. The data set is classed as binding. The settings on record: 20 mM Tris pH 8, 10 mM NaCl, 0.1% LAPAO, 25°C, stronger site of two-site fit. The text has this:
tryptophan fluorescence variation, two-site fit on NTT1ΔC

Data set [1] concerns the target T2, NTT1 (plastid / chloroplast ATP/ADP transporter 1) (Arabidopsis thaliana, UniProt Q39002).
T2 construct: gene AATP1; mature form lacking first 79 residues (transit peptide), N-terminal His-tag, C-terminal StreptagII; E. coli; purified in LAPAO; monomers and dimers
T2 sequence (Q39002 80-624): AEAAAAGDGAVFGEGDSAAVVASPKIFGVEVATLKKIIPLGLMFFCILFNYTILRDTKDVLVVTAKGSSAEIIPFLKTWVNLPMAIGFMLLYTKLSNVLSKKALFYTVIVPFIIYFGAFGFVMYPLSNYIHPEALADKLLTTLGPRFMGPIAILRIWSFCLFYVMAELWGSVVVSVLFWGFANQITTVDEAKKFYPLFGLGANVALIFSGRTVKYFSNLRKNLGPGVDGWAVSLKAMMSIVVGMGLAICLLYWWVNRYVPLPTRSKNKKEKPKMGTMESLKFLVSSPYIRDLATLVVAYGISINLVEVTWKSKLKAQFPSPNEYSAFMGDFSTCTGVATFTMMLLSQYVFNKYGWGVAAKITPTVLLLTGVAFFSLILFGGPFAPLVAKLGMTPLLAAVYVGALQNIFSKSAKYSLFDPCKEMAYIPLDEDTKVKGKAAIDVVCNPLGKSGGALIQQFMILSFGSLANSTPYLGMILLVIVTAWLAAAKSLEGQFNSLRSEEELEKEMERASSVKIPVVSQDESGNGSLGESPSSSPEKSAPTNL
Description: tryptophan fluorescence quenching. The data set is classed as binding. To be noted: 20 mM Tris pH 8, 10 mM NaCl, 0.1% LAPAO, 25°C; no Mg2+, no Pi; one-site fit; read-out: Affinity. From the text:
tryptophan fluorescence quenching on NTT1 (plastid / chloroplast ATP/ADP transporter 1)

Data set [2] concerns the target T3, NTT1 (plastid / chloroplast ATP/ADP transporter 1) (Arabidopsis thaliana, UniProt Q39002, E246K).
T3 construct: gene AATP1; mature form lacking first 79 residues (transit peptide), N-terminal His-tag, C-terminal StreptagII; E. coli; purified in LAPAO; monomers and dimers
T3 sequence (Q39002 80-624 E246K): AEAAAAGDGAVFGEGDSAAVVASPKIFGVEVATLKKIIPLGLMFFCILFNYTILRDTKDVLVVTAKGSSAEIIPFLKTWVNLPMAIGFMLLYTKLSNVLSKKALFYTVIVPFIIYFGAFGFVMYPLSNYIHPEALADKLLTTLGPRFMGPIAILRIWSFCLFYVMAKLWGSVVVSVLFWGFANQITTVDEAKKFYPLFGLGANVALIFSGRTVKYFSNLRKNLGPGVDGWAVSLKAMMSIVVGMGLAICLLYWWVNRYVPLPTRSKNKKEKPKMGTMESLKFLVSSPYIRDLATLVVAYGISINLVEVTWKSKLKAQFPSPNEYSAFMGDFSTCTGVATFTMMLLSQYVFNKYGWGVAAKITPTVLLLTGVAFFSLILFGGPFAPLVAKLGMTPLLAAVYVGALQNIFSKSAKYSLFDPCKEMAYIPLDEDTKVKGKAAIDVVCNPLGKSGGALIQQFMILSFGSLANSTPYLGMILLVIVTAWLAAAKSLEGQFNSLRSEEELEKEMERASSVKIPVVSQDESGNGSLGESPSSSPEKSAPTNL
Briefly: tryptophan fluorescence variation. Type of data set: binding. From the text:
(§1) tryptophan fluorescence variation on NTT1 (plastid / chloroplast ATP/ADP transporter 1)

The target in data set [3] is T4, NTT1 (plastid / chloroplast ATP/ADP transporter 1) (Arabidopsis thaliana, UniProt Q39002, K528E).
T4 construct: gene AATP1; mature form lacking first 79 residues (transit peptide), N-terminal His-tag, C-terminal StreptagII; E. coli; purified in LAPAO; monomers and dimers
T4 sequence (Q39002 80-624 K528E): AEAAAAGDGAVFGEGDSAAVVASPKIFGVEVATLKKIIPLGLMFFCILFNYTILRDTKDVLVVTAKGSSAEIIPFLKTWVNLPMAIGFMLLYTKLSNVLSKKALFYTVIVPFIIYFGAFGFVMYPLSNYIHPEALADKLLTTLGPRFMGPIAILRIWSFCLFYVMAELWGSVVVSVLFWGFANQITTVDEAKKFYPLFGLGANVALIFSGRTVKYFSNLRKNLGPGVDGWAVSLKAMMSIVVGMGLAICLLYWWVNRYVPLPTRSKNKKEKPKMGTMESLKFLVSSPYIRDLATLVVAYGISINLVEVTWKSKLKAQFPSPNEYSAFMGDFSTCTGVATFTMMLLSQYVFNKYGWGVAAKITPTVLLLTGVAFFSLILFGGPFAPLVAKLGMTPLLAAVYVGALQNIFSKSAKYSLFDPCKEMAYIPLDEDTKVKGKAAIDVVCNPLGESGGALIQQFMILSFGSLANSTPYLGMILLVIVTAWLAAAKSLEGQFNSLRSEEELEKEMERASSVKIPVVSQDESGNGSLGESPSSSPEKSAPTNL
Description: tryptophan fluorescence variation. The settings on record: read-out: Affinity for ADP. The data set is classed as binding.
Excerpt: as §1

For data set [4], the target named is T5, NTT1 (plastid / chloroplast ATP/ADP transporter 1) (Arabidopsis thaliana, UniProt Q39002, K528R).
T5 construct: gene AATP1; mature form lacking first 79 residues (transit peptide), N-terminal His-tag, C-terminal StreptagII; E. coli; purified in LAPAO; monomers and dimers
T5 sequence (Q39002 80-624 K528R): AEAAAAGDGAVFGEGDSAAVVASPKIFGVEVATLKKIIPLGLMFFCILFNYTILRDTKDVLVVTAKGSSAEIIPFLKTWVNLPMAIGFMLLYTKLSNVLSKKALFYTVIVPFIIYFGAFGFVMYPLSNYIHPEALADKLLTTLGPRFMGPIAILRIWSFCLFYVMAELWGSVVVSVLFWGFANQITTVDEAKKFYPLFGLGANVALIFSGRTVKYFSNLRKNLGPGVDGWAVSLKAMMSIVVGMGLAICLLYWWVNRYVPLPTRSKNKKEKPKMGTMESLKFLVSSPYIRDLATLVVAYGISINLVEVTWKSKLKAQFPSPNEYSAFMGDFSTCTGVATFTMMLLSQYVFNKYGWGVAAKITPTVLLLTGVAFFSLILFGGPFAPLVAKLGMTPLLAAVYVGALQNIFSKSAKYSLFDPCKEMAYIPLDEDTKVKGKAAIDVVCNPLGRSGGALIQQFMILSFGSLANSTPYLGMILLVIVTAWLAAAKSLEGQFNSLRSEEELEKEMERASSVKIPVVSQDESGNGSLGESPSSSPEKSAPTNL
Briefly: tryptophan fluorescence variation. The data set is classed as binding.
Excerpt: as §1

Data set [5] addresses T6, NTT1 (plastid / chloroplast ATP/ADP transporter 1) (Arabidopsis thaliana, UniProt Q39002, K156R).
T6 construct: gene AATP1; mature form lacking first 79 residues (transit peptide), N-terminal His-tag, C-terminal StreptagII; E. coli; purified in LAPAO; monomers and dimers
T6 sequence (Q39002 80-624 K156R): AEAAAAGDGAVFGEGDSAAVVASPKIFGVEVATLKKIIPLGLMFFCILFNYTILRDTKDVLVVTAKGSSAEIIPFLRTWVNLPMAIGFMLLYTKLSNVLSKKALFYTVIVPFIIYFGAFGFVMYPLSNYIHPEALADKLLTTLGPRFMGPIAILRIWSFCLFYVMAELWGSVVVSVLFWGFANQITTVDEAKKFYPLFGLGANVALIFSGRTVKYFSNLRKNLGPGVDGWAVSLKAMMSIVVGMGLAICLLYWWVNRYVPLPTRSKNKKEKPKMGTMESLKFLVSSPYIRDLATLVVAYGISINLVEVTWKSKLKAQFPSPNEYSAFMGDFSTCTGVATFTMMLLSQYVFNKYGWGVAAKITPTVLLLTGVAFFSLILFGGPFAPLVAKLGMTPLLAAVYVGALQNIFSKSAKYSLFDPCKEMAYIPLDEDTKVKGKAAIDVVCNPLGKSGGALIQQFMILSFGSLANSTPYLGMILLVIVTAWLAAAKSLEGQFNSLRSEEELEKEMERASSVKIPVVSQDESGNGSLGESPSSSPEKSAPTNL
Description: tryptophan fluorescence variation. The data set is classed as binding. The settings on record: read-out: Affinity for ATP.
Excerpt: as §1

For data set [6], the target named is Chloroplast ATP/ADP transporter 1 (NTT1), mature form (Arabidopsis thaliana). Description: Multiple Angle Laser Light Scattering; purified NTT1 in LAPAO; data not shown.
For data set [7] the target is unchanged. Briefly: AUC; sedimentation velocity, NTT1 solubilised and purified in FC12; 42,000 rpm, 10°C.
For data set [8] the target is unchanged. Description: AUC; sedimentation velocity, NTT1 solubilised and purified in β-DDM; 42,000 rpm, 10°C.
For data set [9] the target is unchanged. Description: AUC; sedimentation velocity, NTT1 exchanged from detergent into amphipols; 42,000 rpm, 10°C.
Data set [10] has the same target. Description: AUC; sedimentation velocity, purified protein in 20 mM Tris pH 8, 100 mM NaCl, 0.1% LAPAO, 3 mM desthiobiotin; 42,000 rpm, 10°C; c(s) analysis, absorbance and interference.
Substrate in data set [11]: Nc1ncnc2c1ncn2[C@@H]1O[C@H](COP(=O)(O)OP(=O)(O)O)[C@@H](O)[C@H]1O
Briefly: ATP/ADP exchange by luciferase luminescence, whole E. coli cells. Type of data set: cell-based, Arabidopsis thaliana. The settings on record: transport Km; C-terminal Mistic fusion.

Substrate in data set [12]: Nc1ncnc2c1ncn2[C@@H]1O[C@H](COP(=O)(O)OP(=O)(O)OP(=O)(O)O)[C@@H](O)[C@H]1O
Description: radioactive ATP uptake in whole E. coli cells. The data set is classed as cell-based, Arabidopsis thaliana. To be noted: transport Km; C-terminal Mistic fusion. The text has this:
radioactive ATP uptake in whole E. coli cells on […]

Where two headings read alike, the source gives them in different places.

As usually defined, the stoichiometry N is a count of units in the complex or per binding partner. Broadly, the Km is the substrate concentration at which the rate is half of its maximum.

For `Nc1ncnc2c1ncn2[C@@H]1O[C@H](COP(=O)(O)OP(=O)(O)O)[C@@H](O)[C@H]1O` [ADP], the Kd on NTT1ΔC (read-out: Affinity for ADP) is 0.6 ± 0.7 µM; in data set [1] it was 8.6 ± 1.5 µM; in data set [2] (read-out: Affinity for ADP), 14 ± 5.1 µM; in data set [3], 19 ± 24.1 µM; in [4] (read-out: Affinity for ADP), 33.5 ± 22.3 µM.
`Nc1ncnc2c1ncn2[C@@H]1O[C@H](COP(=O)(O)OP(=O)(O)OP(=O)(O)O)[C@@H](O)[C@H]1O` [ATP]: the Kd on NTT1ΔC (read-out: Affinity for ATP) was 0.7 ± 0.5 µM; in data set [1], 4.2 ± 0.7 µM; in data set [2] (read-out: Affinity for ATP), 1.9 ± 1.7 µM; in data set [5] it was 91.2 ± 58.8 µM; in data set [4] (read-out: Affinity for ATP) it was greater than 1000 µM.
As to “Chloroplast ATP/ADP transporter 1 (NTT1), mature form (natural protein)”, the stoichiometry N in data set [6] came out at 4; in data set [10], 2. Besides, the dimer (% of the three species) was determined as 35% in data set [7], 29% in data set [8], 33% in [9] and 35% in data set [10]. Also, the tetramer (% of the three species) in data set [7] came to 18%; in data set [9] it was 23%; in data set [10], 23%.

B1: NTT1mis (Arabidopsis thaliana) (protein)
chain: AEAAAAGDGAVFGEGDSAAVVASPKIFGVEVATLKKIIPLGLMFFCILFNYTILRDTKDVLVVTAKGSSAEIIPFLKTWVNLPMAIGFMLLYTKLSNVLSKKALFYTVIVPFIIYFGAFGFVMYPLSNYIHPEALADKLLTTLGPRFMGPIAILRIWSFCLFYVMAELWGSVVVSVLFWGFANQITTVDEAKKFYPLFGLGANVALIFSGRTVKYFSNLRKNLGPGVDGWAVSLKAMMSIVVGMGLAICLLYWWVNRYVPLPTRSKNKKEKPKMGTMESLKFLVSSPYIRDLATLVVAYGISINLVEVTWKSKLKAQFPSPNEYSAFMGDFSTCTGVATFTMMLLSQYVFNKYGWGVAAKITPTVLLLTGVAFFSLILFGGPFAPLVAKLGMTPLLAAVYVGALQNIFSKSAKYSLFDPCKEMAYIPLDEDTKVKGKAAIDVVCNPLGKSGGALIQQFMILSFGSLANSTPYLGMILLVIVTAWLAAAKSLEGQFNSLRSEEELEKEMERASSVKIPVVSQDESGNGSLGESPSSSPEKSAPTNL
notes: expressed in E. coli, assayed in whole cells; with Protein mistic
As for B1, the Km in [11] amounted to 12.0 ± 5.2 µM; in [12], 13.2 ± 5.3 µM.

Source of the values: publication PMC3306366, “Oligomeric Status and Nucleotide Binding Properties of the Plastid ATP/ADP Transporter 1: Toward a Molecular Understanding of the Transport Mechanism” (PLoS ONE, 2012).
